50 sequences from the supplement of paper PMC9112550, “Optimization of the antimicrobial peptide Bac7 by deep mutational scanning” (BMC Biology, 2022) can be followed below.
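Also: peptides expressed intracellularly from a pBAD plasmid library in pooled LB shake-flask culture, induced with 0.3% L-arabinose, DNA abundance read by NGS, three biological replicates, DESeq2 with apeglm shrinkage.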

In this series the test system is Escherichia coli TOP10. As to the kind of experiment: shrunken log2 fold change of peptide-encoding DNA abundance (4.5 h post-induction vs induction); higher = less antimicrobial activity (less host growth inhibition). As to conditions: time post-induction: 4.5 h; library: site-saturation at positions 5, 18, 19, 20.
Take RRIRHRPPRLPRPRPRPGFWPRP: the “shrunken log2 fold change” value was 0.0409.

RRIRRRPPRLPRPRPRPLLDPRP: the “shrunken log2 fold change” value came out at 0.449.

Consider RRIRRRPPRLPRPRPRPTWFPRP, for which the “shrunken log2 fold change” value is 0.0478.

RRIRSRPPRLPRPRPRPVRSPRP: the “shrunken log2 fold change” value stood at 0.255.

For the sequence RRIRMRPPRLPRPRPRPEIIPRP, the “shrunken log2 fold change” value was found to be 2.84.

Take RRIRCRPPRLPRPRPRPFGCPRP: the “shrunken log2 fold change” value was -0.308.

RRIRWRPPRLPRPRPRPYAHPRP: the “shrunken log2 fold change” value is -0.056.

As for RRIRHRPPRLPRPRPRPAKFPRP, the “shrunken log2 fold change” value was -0.139.

Regarding RRIRMRPPRLPRPRPRPYKQPRP, the “shrunken log2 fold change” value is -0.000436.

Consider RRIRVRPPRLPRPRPRPKRVPRP, for which the “shrunken log2 fold change” value stood at 0.0344.

With RRIRIRPPRLPRPRPRPTLMPRP, the “shrunken log2 fold change” value is -0.0204.

Consider RRIRGRPPRLPRPRPRPHMLPRP, for which the “shrunken log2 fold change” value was 0.142.

As for RRIRSRPPRLPRPRPRPHGTPRP, the “shrunken log2 fold change” value is -0.161.

For RRIRGRPPRLPRPRPRPNYNPRP, the “shrunken log2 fold change” value is -0.262.

With RRIRRRPPRLPRPRPRPWFAPRP, the “shrunken log2 fold change” value was determined as 0.204.

In the case of RRIRERPPRLPRPRPRPNVDPRP, the “shrunken log2 fold change” value is -0.0153.

For the sequence RRIRLRPPRLPRPRPRPDGQPRP, the “shrunken log2 fold change” value stood at 0.00145.

With RRIRHRPPRLPRPRPRPHTRPRP, the “shrunken log2 fold change” value was -0.174.

Take RRIRWRPPRLPRPRPRPQSPPRP: the “shrunken log2 fold change” value worked out at 0.0211.

In the case of RRIRIRPPRLPRPRPRPYEFPRP, the “shrunken log2 fold change” value stood at 0.00826.

On to RRIRQRPPRLPRPRPRPDKCPRP, for which the “shrunken log2 fold change” value came to 0.272.

On to RRIRPRPPRLPRPRPRPEPYPRP, for which the “shrunken log2 fold change” value was -0.309.

For the sequence RRIRFRPPRLPRPRPRPEILPRP, the “shrunken log2 fold change” value is -0.0488.

Take RRIRDRPPRLPRPRPRPHEPPRP: the “shrunken log2 fold change” value amounted to 0.211.

For RRIRLRPPRLPRPRPRPEYHPRP, the “shrunken log2 fold change” value was found to be 0.0779.

Regarding RRIRQRPPRLPRPRPRPWCFPRP, the “shrunken log2 fold change” value is -0.263.

Consider RRIRCRPPRLPRPRPRPDVEPRP, for which the “shrunken log2 fold change” value is -0.421.

Consider RRIRIRPPRLPRPRPRPTWFPRP, for which the “shrunken log2 fold change” value is 0.159.

As for RRIRDRPPRLPRPRPRPGFVPRP, the “shrunken log2 fold change” value stood at 0.0977.

RRIRYRPPRLPRPRPRPRYVPRP: the “shrunken log2 fold change” value was -0.0777.

In the case of RRIRFRPPRLPRPRPRPTVQPRP, the “shrunken log2 fold change” value is 0.0692.

As for RRIRTRPPRLPRPRPRPFMHPRP, the “shrunken log2 fold change” value is -0.547.

Turning to RRIRMRPPRLPRPRPRPVQGPRP, the “shrunken log2 fold change” value is 0.0203.

Consider RRIRERPPRLPRPRPRPPAVPRP, for which the “shrunken log2 fold change” value worked out at 0.349.

On to RRIRMRPPRLPRPRPRPEWQPRP, for which the “shrunken log2 fold change” value was determined as 0.23.

Regarding RRIRRRPPRLPRPRPRPVEKPRP, the “shrunken log2 fold change” value is -0.00451.

Turning to RRIRHRPPRLPRPRPRPRWKPRP, the “shrunken log2 fold change” value was 0.00489.

As for RRIRQRPPRLPRPRPRPEWGPRP, the “shrunken log2 fold change” value was 0.125.

Regarding RRIRARPPRLPRPRPRPCRIPRP, the “shrunken log2 fold change” value was -0.0344.

With RRIRNRPPRLPRPRPRPDPPPRP, the “shrunken log2 fold change” value amounted to 0.143.

Consider RRIRWRPPRLPRPRPRPYKWPRP, for which the “shrunken log2 fold change” value is -0.484.

On to RRIRQRPPRLPRPRPRPIFMPRP, for which the “shrunken log2 fold change” value is -0.00126.

As for RRIRERPPRLPRPRPRPHGHPRP, the “shrunken log2 fold change” value came to 0.0257.

Turning to RRIRDRPPRLPRPRPRPYDIPRP, the “shrunken log2 fold change” value was -0.00136.

With RRIRKRPPRLPRPRPRPRPMPRP, the “shrunken log2 fold change” value was determined as 0.585.

On to RRIRRRPPRLPRPRPRPIDTPRP, for which the “shrunken log2 fold change” value is -0.307.

Regarding RRIRDRPPRLPRPRPRPRCNPRP, the “shrunken log2 fold change” value was -0.0439.

With RRIRVRPPRLPRPRPRPSCLPRP, the “shrunken log2 fold change” value is -0.618.

In the case of RRIRQRPPRLPRPRPRPETVPRP, the “shrunken log2 fold change” value is -0.0886.

On to RRIRERPPRLPRPRPRPCTQPRP, for which the “shrunken log2 fold change” value was -0.00926.
